This is an account of results in the RNAGym collection of RNA variant scans (doi:10.1101/gr.219683.116).

Sequences and labels used below:
B1: mRNA-splicing (parent)
chain: AGUUGCUGCUGGGAGCUCCAGCACAGUGAAAUGGACAGAAGGGCAGAGCAA

In the data set the parent is B1. The data set is described as follows: exon inclusion enrichment index; higher = more inclusion; WT1 exon 5 minigene, HEK293.
With AGUUUCUUUUGGGAGCUCCAGCAACGUGAAAUGGACAGAAGGGCAGAGCAA [G5U G8U C9U C24A A25C], the “exon inclusion enrichment index” value was determined as 0.849. The value for AGUUAGGGAUGGGAGCUCCAGCACAGUGAAAUGGGUAGAAGGGCAGAGCAA [G5A C6G U7G C9A A35G C36U] was 0.00169; that for AGUUCACACAGGGAGCUCCAGCACAGUGACUUGGACAGAAGGGCAGAGCAA [G5C C6A U7C G8A U10A A30C A31U] was 0.168; that for AGUUGACGACGGGAGCUCCAGCACAGUGAAAUGGACAGAAGGUUAGAGCAA [C6A U7C C9A U10C G43U C44U] was 1.21. Take AGUUAGGGAUGGGAGCUCCAGGGCAGUGAAAUGGACAGAAGGGCAGAGCAA [G5A C6G U7G C9A C22G A23G]: the “exon inclusion enrichment index” value was determined as 0.00134. For AGUUGACAGCGGGAGCUCCAGCACAGUGAAAUGGACAGAAGGGCAGAGCAA [C6A U7C G8A C9G U10C], the “exon inclusion enrichment index” value came to 1.39. Next, AGUUAGGGAUGGGAGCUCUCGCACAGUGAAAUGGACAGAAGGGCAGAGCAA [G5A C6G U7G C9A C19U A20C]: 0.00291. Next, AGUUGCUGCUGGGAGCUUAAGCACAGUGAAAUGGACAGAAGGGCAGAGCAA [C18U C19A]: 0.302. The value for AGGUAGGGAUGGGAGCUCCAGCACAGUGAAAUGGACAGAAGGGCAGAGCAA [U3G G5A C6G U7G C9A] was 0.0125; that for AGUUCUUCUCGGGAGCUCCAGCACAGUGAAAUGGACAGUUGGGCAGAGCAA [G5C C6U G8C C9U U10C A39U A40U] was 0.67; that for AGUUCUUCUCGGGAGCUCCGACACAGUGAAAUGGACAGAAGGGCAGAGCAA [G5C C6U G8C C9U U10C A20G G21A] was 2.38.

Take AGUUGAAGCUGGGAGCUCCAGCACAGUGAAAUGGACAGAAGGGCAGAGCAA [C6A U7A]: the “exon inclusion enrichment index” value came out at 0.261. Take AGUUACCACCGGGAGCGACAGCACAGUGAAAUGGACAGAAGGGCAGAGCAA [G5A U7C G8A U10C U17G C18A]: the “exon inclusion enrichment index” value was 2.15. The value for AGUUCACACAGGGAGCUCCAGCUUAGUGAAAUGGACAGAAGGGCAGAGCAA [G5C C6A U7C G8A U10A A23U C24U] was 0.00309. Turning to AGUUCGCGCCCGGAGCUCCAGCACAGUGAAAUGGACAGAAGGGCAGAGCAA [G5C C6G U7C U10C G11C], the “exon inclusion enrichment index” value worked out at 2.92. Next, AGUUCUUCUCGGGAGCUCCAGCACAGUGAAAUGGACAGAAGGGCUAAGCAA [G5C C6U G8C C9U U10C A45U G46A]: 1.39; AGUUGACGACGGGAGCUCCAGCACAGUGAAAUGGACAGUUGGGCAGAGCAA [C6A U7C C9A U10C A39U A40U]: 1.76. Next, AGUUAGGGAUGGGAGCUCCAGCACAGUGAAAUGUCCAGAAGGGCAGAGCAA [G5A C6G U7G C9A G34U A35C]: 0.000948; AGUUUCUUUUGGGAGCUCCAGCAUCGUGAAAUGGACAGAAGGGCAGAGCAA [G5U G8U C9U C24U A25C]: 0.987; AGUUGAAGAAGGGAGCUCCAGCACAGUGAAAAUGACAGAAGGGCAGAGCAA [C6A U7A C9A U10A U32A G33U]: 0.298. Next, ACCUGCUGCUGGGAGCUCCAGCACAGUGAAAUGGACAGAAGGGCAGAGCAA [G2C U3C]: 0.044; AGUUAUAUAUGGGAGCUCCAGCACAGUGAAAUGGACAGACAGGCAGAGCAA [G5A C6U U7A G8U C9A A40C G41A]: 0.00954; AGUGCCUUUUGGGAGCUCCAGCACAGUGAAAUGGACAGAAGGGCAGAGCAA [U4G G5C G8U C9U]: 0.642.

As to AGUUCGCGCCGGGAGCUCCAGCACAUCGAAAUGGACAGAAGGGCAGAGCAA [G5C C6G U7C U10C G26U U27C], the “exon inclusion enrichment index” value came out at 4.3. Next, AGUUGCUGCUGGGAGCUCCAGCACAGUGUUAUGGACAGAAGGGCAGAGCAA [A29U A30U]: 0.0389; AGUUCGCGCCGGUUGCUCCAGCACAGUGAAAUGGACAGAAGGGCAGAGCAA [G5C C6G U7C U10C G13U A14U]: 1.35; AGUUGAAGAAGGGAGCUCCAGCACACAGAAAUGGACAGAAGGGCAGAGCAA [C6A U7A C9A U10A G26C U27A]: 0.842.

Regarding AGUCAACGACGGGAGCUCCAGCACAGUGAAAUGGACAGAAGGGCAGAGCAA [U4C G5A C6A U7C C9A U10C], the “exon inclusion enrichment index” value is 4.23.

In the case of AGUGGCCACCGGGAGCUCCAGCACAGUGAAAUGGACAGAAGGGCAGAGCAA [U4G U7C G8A U10C], the “exon inclusion enrichment index” value was found to be 1.53. Next, AGUUCUUCUCGGGAGUCCCAGCACAGUGAAAUGGACAGAAGGGCAGAGCAA [G5C C6U G8C C9U U10C C16U U17C]: 1.08; AGUUCGCGCCGGUAGCUCCAGCACAGUGAAAUGGACAGAAGGGCAGAGCAA [G5C C6G U7C U10C G13U]: 0.534. Next, AGUUAUAUAUGGGAGCUCCAGCACAGUGAAAUGGACAUGAGGGCAGAGCAA [G5A C6U U7A G8U C9A G38U A39G]: 0.03; AGUUGACGACGGGAGCUCCAGCACACCGAAAUGGACAGAAGGGCAGAGCAA [C6A U7C C9A U10C G26C U27C]: 4.37. Next, AGUUCUUACCGGGAGCUCCAGCACAGUGAAAUGGACAGAAGGGCAGAGCAA [G5C C6U G8A U10C]: 1.18; AGUUGACGACGGGAGCUCCAGCACAGCUAAAUGGACAGAAGGGCAGAGCAA [C6A U7C C9A U10C U27C G28U]: 2.92; AGUUCACACAGGGAGCUCCUACACAGUGAAAUGGACAGAAGGGCAGAGCAA [G5C C6A U7C G8A U10A A20U G21A]: 0.0323. Consider AGUUCGCGCCGUCAGCUCCAGCACAGUGAAAUGGACAGAAGGGCAGAGCAA [G5C C6G U7C U10C G12U G13C], for which the “exon inclusion enrichment index” value turned out to be 0.741.

As to AGUUAGGGAUGGGAGCUCCAGCACAGUGAAAUGGAUGGAAGGGCAGAGCAA [G5A C6G U7G C9A C36U A37G], the “exon inclusion enrichment index” value was 0.00557. Next, AAAUGAAGAAGGGAGCUCCAGCACAGUGAAAUGGACAGAAGGGCAGAGCAA [G2A U3A C6A U7A C9A U10A]: 0.777; AGUUUCUCUCGGGAGCUCCAGCACAGUGAAAUGGACAGAAGGGCAGAGCAA [G5U G8C C9U U10C]: 0.934; AGUUGACGACGGGAGCUCCAGCACAGUGAAAUGGACAGAAGGGGUGAGCAA [C6A U7C C9A U10C C44G A45U]: 3.12.

Regarding AGUUAUAUAUGGGAGCUCCAGCACAGUGAAAUGGACAACAGGGCAGAGCAA [G5A C6U U7A G8U C9A G38A A39C], the “exon inclusion enrichment index” value stood at 0.0573.

For the variant AGUUCUUCUCGGGAGCUACAGCACAGUGAAAUGGACAGAAGGGCAGAGCAA [G5C C6U G8C C9U U10C C18A], the “exon inclusion enrichment index” value came out at 1.39. Next, AGUUAUAUAUGGGAGCUCCAGCACAGUGAAAUGGACAGAAGGGCUUAGCAA [G5A C6U U7A G8U C9A A45U G46U]: 0.0214; AGUUAGGGAUGGGAGCUCCAGCACAGUGAAAUACACAGAAGGGCAGAGCAA [G5A C6G U7G C9A G33A G34C]: 0.000823; AGUUCACACAGGGAGCUCCAGCCGAGUGAAAUGGACAGAAGGGCAGAGCAA [G5C C6A U7C G8A U10A A23C C24G]: 0.664. Next, AGUUCACUGAGGGAGCUCCAGCACAGUGAAAUGGACAGAAGGGCAGAGCAA [G5C C6A U7C G8U C9G U10A]: 0.381. In the case of AGUUUCUUUUGGGAGAACCAGCACAGUGAAAUGGACAGAAGGGCAGAGCAA [G5U G8U C9U C16A U17A], the “exon inclusion enrichment index” value was found to be 0.0994.

On to AGUUCGCGCCGAAAGCUCCAGCACAGUGAAAUGGACAGAAGGGCAGAGCAA [G5C C6G U7C U10C G12A G13A], for which the “exon inclusion enrichment index” value amounted to 1.51. Take AGUUCUUCUCGGGAGCUCCAGCACAGUGAAAUCGACAGAAGGGCAGAGCAA [G5C C6U G8C C9U U10C G33C]: the “exon inclusion enrichment index” value amounted to 2.15. Next, AGUUACCGUCGGGAGCUCCAGCACAGUGAAAUGGACAGAAGGGCAGAGCAA [G5A U7C C9U U10C]: 2.63.
